From patent publication US20240228627A1, “GALECTIN-1-SPECIFIC MONOVALENT ANTIBODIES AND USES THEREOF” (INSTITUT NATIONAL DE LA RECHERCHE SCIENTIFIQUE, priority 2021, published 2024)
“Also recorded” adds a separate entry of the source.

What was measured:
mouse galectin-1 = molecular target: T1, mouse galectin-1 (Mus musculus, UniProt P16045); test: microscale thermophoresis (MST) binding affinity, mouse galectin-1; conditions: Red-NHS labeled G1N1 (2 nM); 20 mM Tris-HCl 150 mM NaCl 0.1% F127
T1 construct: made in house; host or cells: E. coli BL21 (DE3), pET-22b(+)
T1 sequence (P16045 whole entry): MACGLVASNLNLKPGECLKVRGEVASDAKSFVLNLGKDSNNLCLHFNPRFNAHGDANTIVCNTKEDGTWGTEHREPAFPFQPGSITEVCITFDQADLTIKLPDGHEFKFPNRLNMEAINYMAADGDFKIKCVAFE
Experimental: (§1) FIGS. 9A-C show the binding affinities evaluated by microscale thermophoresis (MST) using various ligands over a range of 16 ligand concentrations allowing to obtain a full concentration-response curve. FIG. 9A: Red-NHS labeled human GAL-1 (5 nM) incubated with G1N1 or alpha-lactose (a-lactose). FIG. 9B: Red-NHS labeled G1N1 (2 nM) was used to study the affinity of G1N1 for mouse and human galectin-1. […] All experiments were performed in 20 mM Tris-HCl 150 mM NaCl and 0.1% F127. Binding affinities (Kd values) were determined from the fitted curves (three parameter dose-response curve) obtained from data of at least 3 independent experiments. For each value, 95% confidence intervals (Cl) are indicated.
(§2) Microscale thermophoresis (MST. Galectins were labeled using the RED-NHS labeling kit (Nanotemper Technologies, Germany) in accordance with the manufacturer's protocol. Unreacted dye was removed using the provided purification columns. Binding affinity assays were performed in 20 mM Tris-HCl, 150 mM NaCl and 0.1% F127. Samples were loaded into standard Monolith NT.115 capillaries and microscale thermophoresis was measured using a Monolith NT.115 Pico instrument (Nanotemper Technologies, Germany) at ambient temperature. Binding affinities (Kd values) were determined from the fitted curves (three parameter dose-response curve).

human GAL-8 = molecular target: T2, human GAL-8 (Homo sapiens, UniProt O00214); test: microscale thermophoresis (MST) binding, human GAL-8; conditions: at 10 μM; Red-NHS labeled G1N1 (2 nM)
T2 sequence (O00214 1-317): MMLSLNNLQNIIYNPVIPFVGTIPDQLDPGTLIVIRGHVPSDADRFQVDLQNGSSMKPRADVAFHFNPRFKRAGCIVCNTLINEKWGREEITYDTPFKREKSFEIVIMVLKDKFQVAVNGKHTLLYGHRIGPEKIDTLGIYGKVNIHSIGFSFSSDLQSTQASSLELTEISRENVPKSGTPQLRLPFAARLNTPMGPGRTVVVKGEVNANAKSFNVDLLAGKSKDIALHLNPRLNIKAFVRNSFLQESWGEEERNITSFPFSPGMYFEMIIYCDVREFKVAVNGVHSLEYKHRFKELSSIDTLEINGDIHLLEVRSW
Experimental: as §1, §2

human GAL-7 [1] = molecular target: T3, human GAL-7 (Homo sapiens, UniProt P47929); test: microscale thermophoresis (MST) binding, human GAL-7; conditions: at 10 μM; Red-NHS labeled G1N1 (2 nM)
T3 construct: made in house; host or cells: E. coli BL21 (DE3), pET-22b(+)
T3 sequence (P47929 whole entry): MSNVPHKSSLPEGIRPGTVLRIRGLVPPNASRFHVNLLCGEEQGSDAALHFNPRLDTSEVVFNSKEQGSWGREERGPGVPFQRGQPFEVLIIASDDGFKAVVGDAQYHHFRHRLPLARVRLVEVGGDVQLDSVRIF
Experimental: as §1, §2

human galectin-1 = molecular target: T4, human galectin-1 (Homo sapiens, UniProt P09382); test: microscale thermophoresis (MST) binding affinity, human galectin-1
T4 construct: made in house; host or cells: E. coli BL21 (DE3), pET-22b(+)
T4 sequence (P09382 whole entry): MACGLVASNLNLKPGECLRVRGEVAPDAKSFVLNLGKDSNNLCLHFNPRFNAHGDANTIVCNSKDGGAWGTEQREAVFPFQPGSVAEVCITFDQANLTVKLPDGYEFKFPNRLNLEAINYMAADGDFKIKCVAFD
Experimental: as §1, §2

[2] = molecular target: T5, recombinant human GAL-1 (rhGAL-1) (Homo sapiens, UniProt P09382); test: inhibition of galectin-1-induced apoptosis of Jurkat T cells (annexin V/propidium iodide flow cytometry); format: cell-based; conditions: rhGAL-1 2.25 μM, 4 h at 37° C., increasing concentrations of nanobody
T5 construct: made in house; host or cells: E. coli BL21 (DE3), pET-22b(+)
T5 sequence (P09382 whole entry): as above
Experimental: Briefly, Jurkat T cells were incubated with recombinant human GAL-1 (rhGAL-1; 2.25 μM) for 4h at 37° C. in presence of increasing concentrations of G1N1 and G1N2. Apoptosis was measured by flow cytometry using conventional annexin V/propidium iodide staining. Results represent data recorded on 5000 cells. Errors bars represent standard deviation.
Jurkat T cells were incubated with increasing concentrations of G1N1 pre-incubated with rhGAL-1 (2.25 μM) for 4 h at 37° C., after which apoptosis was measured by flow cytometry using Annexin V/propidium iodide staining. 5000 events were recorded. Errors bars represent standard deviation.
Apoptosis of human T cells. In vitro apoptosis assays were carried out using the standard in vitro human Jurkat T cell model system, fluorescein isothiocyanate (FITC)-labeled annexin V (Biolegend, San Diego, CA, USA) and propidium iodide (PI). Briefly, recombinant galectin-1 was pre-incubated for 1 h at 4° C. in serum free RPMI 1640 medium before addition to Jurkat cells. The mixture was incubated at 37° C. for 4 h. Cells were then washed once in PBS and once in binding buffer (0.01 M HEPES, 0.14 M NaCl, 2.5 mM CaCl2, pH 7.4). For staining, cells were incubated for 15 min with FITC-labeled annexin V in the dark at room temperature. The PI (0.25 μg/mL) stain was added to cells just before analysis by flow cytometry.

mouse GAL-7 = molecular target: T6, mouse GAL-7 (Mus musculus, UniProt O54974); test: microscale thermophoresis (MST) binding, mouse GAL-7; conditions: at 10 μM; Red-NHS labeled G1N1 (2 nM)
T6 sequence (O54974 1-136): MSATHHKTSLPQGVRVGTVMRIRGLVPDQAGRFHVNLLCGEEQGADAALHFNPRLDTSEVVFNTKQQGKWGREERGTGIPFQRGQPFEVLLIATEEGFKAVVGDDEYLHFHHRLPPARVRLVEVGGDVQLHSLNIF
Experimental: as §1, §2

human GAL-7 [3] = molecular target: T3, human GAL-7; test: inhibition of GAL-7-induced apoptosis of Jurkat T cells (annexin V/propidium iodide flow cytometry); format: cell-based; conditions: human GAL-7 10 μM, 4 h at 37° C.
[4] = tested on: human galectin-1 versus galectin-2, -7, -13 and -16; test: ELISA binding of G1N1 to immobilized recombinant human galectins; conditions: human galectins immobilized at 1 and 5 μM; increasing concentrations of G1N1
Experimental: Briefly, human galectins were immobilized at 1 and 5 μM for 16 h at 4° C. After a blocking step with PBS containing 10% (v/v) BSA (blocking buffer), increasing concentrations of G1N1 were added to each well and incubated for 1 h at room T° C. […] The colorimetric assay was carried out with 3,3′,5,5′-tetramethylbenzidine (Sigma-Aldrich, ON, Canada) according to the manufacturers recommendations.
ELISA assays. Recombinant human galectins were immobilized in 96-well plates at the indicated concentrations for 16 h at 4° C. After a blocking step with PBS containing 10% (v/v) bovine serum albumin (BSA) (blocking buffer), increasing concentrations of G1N1 were added to each well and incubated for 1 h at room temperature. […] The colorimetric assay was carried out with TMB (Sigma-Aldrich, MO, USA) according to the manufacturer's recommendations.

[5] = molecular target: T7, GAL-1-Biotin (biotinylated human GAL-1) (Homo sapiens, UniProt P09382); test: non-adsorbed phage ELISA of VHH clones on GAL-1-Biotin; format: binding; conditions: HRP-conjugated anti-M13 antibody, TMB substrate; 282 clones tested
T7 construct: made in house; host or cells: E. coli BL21 (DE3), pET-22b(+)
T7 sequence (P09382 whole entry): as the sequence (P09382 whole entry) above
Experimental: Generation and production of single chain camelid antibodies. Galectin-specific single chain (VHH) camelid antibodies were obtained following in vitro screening of a non-immune humanized synthetic single domain antibodies (hsd2Ab) library that contains more than 3×10^9 clones expressed at the surface of M13 phage [Moutel et al., 2016]. The panning was carried out against immobilized recombinant human galectin-1 devoid of carbohydrate in its glycan binding site (GBS). Prior to the phage display selection, galectin-1-biotin and GST-Biotin were bound to streptavidin magnetic beads (Dynabeads® M-280 Streptavidin, Life Technologies) with a 50 nM final concentration of biotinylated protein for the first round and 10 nM final concentration of biotinylated protein for the second and third rounds. […] Following three-rounds of phage display, clones were picked randomly and analyzed by non-adsorbed phage ELISA using HRP-conjugated anti-M13 antibody (GE Healthcare) and a colorimetric substrate (TMB, tetramethylbenzidine, Thermo Fischer).
Following an initial pre-screen round of phage display carried out with GST-biotin to deplete the library from unspecific binders, unbound VHHs were incubated with GAL-1-Biotin beads. […] A total of 282 VHHs were then picked and analyzed by ELISA for galectin-1 binders.

human GAL-13 = molecular target: T8, human GAL-13 (Homo sapiens, UniProt Q9UHV8); test: microscale thermophoresis (MST) binding, human GAL-13; conditions: at 10 μM; Red-NHS labeled G1N1 (2 nM)
T8 construct: made in house; host or cells: E. coli BL21 (DE3), pET-22b(+)
T8 sequence (Q9UHV8 1-139): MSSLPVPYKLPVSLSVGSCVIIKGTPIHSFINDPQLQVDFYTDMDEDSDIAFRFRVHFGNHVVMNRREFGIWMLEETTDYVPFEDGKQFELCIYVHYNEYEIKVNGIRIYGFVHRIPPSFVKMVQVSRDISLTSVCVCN
Experimental: as §1, §2

B1: G1N1: galectin-1-specific single-domain camelid VHH nanobody, SEQ ID NO:8; lead clone from phage display of a humanized synthetic library (protein)
VHH: MAEVQLQASGGGFVQPGGSLRLSCAASGSTFSEDAMGWFRQAPGKEREFVSAISGFANPHSYYADSVKGRFTISRDNSKNTVYLQMNSLRAEDTATYYCAASHKKTRAPAATFETYWGQGTQVTVSS
modifications: full sequence of G1N1 VHH
binding affinity (Kd) for mouse recombinant galectin-1 by MST (mouse galectin-1): in the nanomolar range
binding to human GAL-8 by MST (human GAL-8): does not bind; also recorded: no binding was detected
binding to human GAL-7 by MST (human GAL-7 [1]): does not bind; also recorded: no binding was detected
affinity for galectin-1 relative to the affinity of lactose for galectin-1 (human galectin-1; MST, Red-NHS labeled human GAL-1 (5 nM) with G1N1 or alpha-lactose): approximately 200 fold
binding affinity (Kd) for human recombinant galectin-1 by MST (human galectin-1; Red-NHS labeled G1N1 (2 nM), 20 mM Tris-HCl 150 mM NaCl 0.1% F127): in the nanomolar range
inhibition of galectin-1-induced apoptosis of Jurkat T cells [2]: strong and significant inhibition
binding to mouse GAL-7 by MST (mouse GAL-7): does not bind; also recorded: no binding was detected
inhibition of GAL-7-induced apoptosis of Jurkat T cells (human GAL-7 [3]): did not inhibit; also recorded: No significant inhibition
specificity for galectin-1 by ELISA against galectin-2, -7, -13 and -16 [4]: specificity of G1N1 for galectin-1 was confirmed
binding in phage ELISA in the presence of GAL-1-Biotin [5]: strong binding; also recorded: strong positive hit
binding to human GAL-13 by MST (human GAL-13): does not bind; also recorded: no binding was detected
